Where two headings read alike, the source gives them in different places.
Assays:
Experiment in all cases: pull-down
[1] = target: T1, His6-tagged NSF (AA 1-744) (mouse, UniProt P46460 1-744)
[2] = target: His6-tagged NSF truncated segment (AA 197-744) (mouse, UniProt P46460 197-744)
[3] = target: T1, His6-tagged NSF (AA 1-744); remark: listed apart in the source
His6-tagged Arr1 = His6-tagged Arr1 (mouse, UniProt P20443 1-403)

Sequence of His6-tagged NSF truncated segment (AA 197-744) (P46460 197-744): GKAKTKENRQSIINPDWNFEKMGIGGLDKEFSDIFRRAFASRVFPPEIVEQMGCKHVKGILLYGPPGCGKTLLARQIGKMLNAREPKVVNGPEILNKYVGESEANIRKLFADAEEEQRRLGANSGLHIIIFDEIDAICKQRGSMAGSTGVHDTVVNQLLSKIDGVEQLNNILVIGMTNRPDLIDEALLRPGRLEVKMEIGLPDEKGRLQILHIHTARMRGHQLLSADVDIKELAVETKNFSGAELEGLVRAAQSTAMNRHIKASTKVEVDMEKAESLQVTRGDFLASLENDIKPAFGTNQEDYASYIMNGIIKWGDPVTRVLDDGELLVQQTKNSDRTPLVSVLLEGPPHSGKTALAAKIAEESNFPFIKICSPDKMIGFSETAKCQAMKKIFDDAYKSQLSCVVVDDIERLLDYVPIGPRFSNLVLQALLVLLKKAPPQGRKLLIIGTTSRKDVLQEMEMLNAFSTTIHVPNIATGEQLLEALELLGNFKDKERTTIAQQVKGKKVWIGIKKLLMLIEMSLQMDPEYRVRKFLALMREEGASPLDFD

B1: GST-tagged truncated Arr1 [AA 1-370] (domain or fragment, mouse, UniProt P20443 1-370, looked up)
chain: MAACGKTNKSHVIFKKVSRDKSVTIYLGKRDYVDHVSQVEPVDGVVLVDPELVKGKKVYVTLTCAFRYGQEDIDVMGLTFRRDLYFSRVQVYPPVGAMSVLTQLQESLLKKLGDNTYPFLLTFPDYLPCSVMLQPAPQDVGKSCGVDFEVKAFASDITDPEEDKIPKKSSVRLLIRKVQHAPPEMGPQPSAEASWQFFMSDKPLNLSVSLSKEIYFHGEPIPVTVTVTNNTDKVVKKIKVSVEQIANVVLYSSDYYVKPVASEETQEKVQPNSTLTKTLVLVPLLANNRERRGIALDGKIKHEDTNLASSTIIKEGIDRTVMGILVSYHIKVKLTVSGFLGELTSSEVATEVPFRLMHPQPEDPAKESVQ
B1: binds [1].

B2: GST-tagged Arr1 [AA 1-403] (natural protein, mouse, UniProt P20443 1-403, looked up)
chain: MAACGKTNKSHVIFKKVSRDKSVTIYLGKRDYVDHVSQVEPVDGVVLVDPELVKGKKVYVTLTCAFRYGQEDIDVMGLTFRRDLYFSRVQVYPPVGAMSVLTQLQESLLKKLGDNTYPFLLTFPDYLPCSVMLQPAPQDVGKSCGVDFEVKAFASDITDPEEDKIPKKSSVRLLIRKVQHAPPEMGPQPSAEASWQFFMSDKPLNLSVSLSKEIYFHGEPIPVTVTVTNNTDKVVKKIKVSVEQIANVVLYSSDYYVKPVASEETQEKVQPNSTLTKTLVLVPLLANNRERRGIALDGKIKHEDTNLASSTIIKEGIDRTVMGILVSYHIKVKLTVSGFLGELTSSEVATEVPFRLMHPQPEDPAKESVQDENLVFEEFARQNLKDTGENTEGKKDEDAGQDE
B2: binds [2]; binds [3].

B3: GST-tagged NSF (AA 1-250) (domain or fragment, mouse, UniProt P46460 1-250, looked up)
chain: MAGRTMQAARCPTDELSLSNCAVVNEKDFQSGQHVMVRTSPNHKYIFTLRTHPSVVPGCIAFSLPQRKWAGLSIGQDIEVALYSFDKAKQCIGTMTIEIDFLQKKNIDSNPYDTDKMAAEFIQQFNNQAFSVGQQLVFSFNDKLFGLLVKDIEAMDPSILKGEPASGKRQKIEVGLVVGNSQVAFEKAENSSLNLIGKAKTKENRQSIINPDWNFEKMGIGGLDKEFSDIFRRAFASRVFPPEIVEQMGC
B3: binds (His6-tagged Arr1).

B4: GST-tagged truncated Arr1 [AA 1-191] (domain or fragment, mouse, UniProt P20443 1-191, looked up)
chain: MAACGKTNKSHVIFKKVSRDKSVTIYLGKRDYVDHVSQVEPVDGVVLVDPELVKGKKVYVTLTCAFRYGQEDIDVMGLTFRRDLYFSRVQVYPPVGAMSVLTQLQESLLKKLGDNTYPFLLTFPDYLPCSVMLQPAPQDVGKSCGVDFEVKAFASDITDPEEDKIPKKSSVRLLIRKVQHAPPEMGPQPSA
B4: binds [1].

From PMC2920134 (The Journal of neuroscience : the official journal of the …, 2010)
